In data set [1] the target is T1, albumin-g6p (albumin-AGE) (Bos taurus, UniProt P02769).
T1 construct: Bovine serum albumin (BSA) fraction V pH 7.0; host or cells: bovine serum, fraction V
Nature of the data set: ELISA: binding of tPA (f.l. tPA, K2-P tPA) to albumin-g6p, with Congo red competition. Also noted: species or system bovine. The note with it: 20 nM tPA, increasing Congo red. How it is done: (§1) Binding of tPA to albumin-g6p (four-week and 23-week incubations), albumin-glyceraldehyde, control albumin, human Hb-g6p (ten-week incubation), Hb control, or to Aβ (1-40) was tested using an enzyme-linked immunosorbent assay (ELISA) set-up. Albumin-g6p and control albumin (2.5 μg ml^−1 in coat buffer, 50 mM Na2CO3/NaHCO3 pH 9.6, 0.02% m/v NaN3, 50 μl/well) were immobilized for one hour at room temperature in 96-well protein Immobilizer plates (Exiqon, Vedbaek, Denmark). Aβ (1-40) (10 μg ml^−1 in coat buffer) was immobilized for 75 minutes at room temperature in a 96-well peptide Immobilizer plate (Exiqon, Vedbaek, Denmark). Control wells were incubated with coat buffer only. After a wash step with 200 μl of PBS/0.1% v/v Tween 20, plates were blocked with 300 μl of PBS/1% v/v Tween 20, for two hours at room temperature while shaking. All subsequent incubations were performed in PBS/0.1% v/v Tween 20 for one hour at room temperature while shaking, with volumes of 50 μl per well. After each incubation, wells were washed five times with 200 μl of PBS/0.1% v/v Tween 20. Increasing amounts of f.l. tPA or K2-P tPA was added in triplicate to coated wells and to control wells. […] Absorbance was read at 490 nm on a Vmax kinetic microplate reader (Molecular Devices, Sunnyvale, Calif., USA). […]
In general terms: ELISA stands for enzyme-linked immunosorbent assay.

For a further data set, the target named is Aβ (1-40) (Homo sapiens, UniProt P05067). Nature of the data set: ELISA: binding of tPA (f.l. tPA, K2-P tPA) to Aβ (1-40), with Congo red competition. Also noted: Peptide Aβ (1-40), containing amino acids as present in the described human Alzheimer peptide; purchased Pepscan, Inc. or peptide synthesis facility of the Netherlands Cancer Institute; host or cells: chemical synthesis. The note with it: 40 nM tPA, 0-100 μM Congo red. How it is done:
as §1

For the next data set, the target named is T2, Aβ (Homo sapiens, UniProt P05067).
T2 construct: Peptide Aβ (1-40), containing amino acids as present in the described human Alzheimer peptide; purchased Pepscan, Inc. or peptide synthesis facility of the Netherlands Cancer Institute; host or cells: chemical synthesis
T2 sequence (P05067 672-711): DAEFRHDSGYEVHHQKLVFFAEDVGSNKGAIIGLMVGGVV
The data set is described as follows: Amyloid ELISA with tPA F-EGF-GST: Aβ. It counts as binding. As for the experimental part:
(§2) In order to define the affinity of the purified tPA F-EGF-GST recombinant protein, ELISAs were performed with immobilized amyloid (poly)peptides and non-amyloid control ΔmIAPP. Twenty-five μg ml^−1 of Aβ, FP13, IAPP or ΔmIAPP was immobilized on Exiqon peptide immobilizer plates. A concentration series of tPA F-EGF-GST in the presence of excess εACA was added to the wells and binding was assayed using anti-GST antibody Z-5. As a control, GST (Sigma-Aldrich, St. Louis, Mo., USA, catalogue #G-5663) was used at the same concentrations.

Data set [2] addresses T3, fibrin fragment α148-160 FP13 (Homo sapiens, UniProt P02671).
T3 construct: purchased Pepscan, Inc. or peptide synthesis facility of the Netherlands Cancer Institute; host or cells: chemical synthesis
Nature of the data set: Amyloid ELISA with tPA F-EGF-GST: FP13. The format is binding. As for the experimental part: as §2

A further data set has as its target T4, IAPP (Homo sapiens, UniProt P10997).
T4 construct: purchased Pepscan, Inc. (The Netherlands) or peptide synthesis facility at the Netherlands Cancer Institute; host or cells: synthetic peptide
T4 sequence (P10997 34-70 limits assumed): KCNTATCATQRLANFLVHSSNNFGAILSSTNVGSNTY
The data set is described as follows: Amyloid ELISA with tPA F-EGF-GST: IAPP. The format is binding. As for the experimental part: as §2

For a further data set, the target named is T5, Aβ fibrils (Homo sapiens, UniProt P05067).
T5 construct: Peptide Aβ (1-40), containing amino acids as present in the described human Alzheimer peptide; purchased Pepscan, Inc. (The Netherlands) or peptide synthesis facility at the Netherlands Cancer Institute; host or cells: synthetic peptide
T5 sequence (P05067 672-711): as the sequence (P05067 672-711) above
The data set is described as follows: Amyloid pull-down with insoluble Aβ fibers. The conditions noted are these: conditioned BHK medium. The format is binding.

Data set [3] has as its system amyloid deposits in human brain inflicted by AD. Nature of the data set: Immunohistochemistry: binding of tPA F-EGF to human AD brain. The note with it: 7 nM construct; Congo red fluorescence to locate amyloid. As for the experimental part: Paraffin brain sections of a human inflicted with AD was a kind gift of Prof. Slootweg (Dept. of Pathology, UMC Utrecht). Sections were deparaffinized in a series of xylene-ethanol. Endogenous peroxidases were blocked with methanol/1.5% H2O2 for 15 minutes. After rinsing in H2O, sections were incubated with undiluted formic acid for ten minutes, followed by incubation in PBS for five minutes. Sections were blocked in 10% HPS in PBS for 15 minutes. Sections were exposed for two hours with 7 nM of tPA F-EGF-GST or GST in PBS/0.3% BSA. After three wash steps with PBS, sections were overlayed with 200 ng ml^−1 anti-GST antibody Z-5, for one hour. After washing, ready-to-use goat anti-rabbit Powervision (Immunologic, Duiven, The Netherlands, catalogue #DPVR-55AP) was applied and incubated for one hour. After washing, sections were stained for ten minutes with 3,3′-diamino benzidine (Sigma-Aldrich, St Louis, Mo., USA, catalogue #D-5905), followed by hematoxylin staining for ten seconds. After washing with H2O, sections were incubated with Congo red according to the manufacturer's recommendations (Sigma Diagnostics, St Louis, Mo., USA). […] Analysis of sections was performed on a Leica DMIRBE fluorescence microscope (Rijswijk, The Netherlands). Fluorescence of Congo red was analyzed using an excitation wavelength of 596 nm and an emission wavelength of 620 nm.

For another data set, the target named is T6, IAPP fibrils (Homo sapiens, UniProt P10997).
T6 construct: purchased Pepscan, Inc. (The Netherlands) or peptide synthesis facility at the Netherlands Cancer Institute; host or cells: synthetic peptide
T6 sequence (P10997 34-70 limits assumed): T4 sequence (P10997 34-70 limits assumed)
Nature of the data set: Amyloid pull-down with IAPP fibrils. The format is binding. The conditions noted are these: conditioned BHK medium. How it is done: Conditioned medium of BHK cells expressing GST-tagged tPA F, F-EGF, EGF, K1, F-EGF-K1, FXII F, HGFa F, Fn F4, Fn F5, Fn F4-5 and GST was used for amyloid binding assays. At first, constructs were adjusted to approximately equal concentration using Western blots. Qualitative binding of the recombinant fragments were evaluated using a “pull-down” assay. To this end, the recombinantly made fragments were incubated with either Aβ or IAPP fibrils. Since these peptides form insoluble fibers, unbound proteins can be easily removed from the fibers following centrifugation. The pellets containing the bound fragments were subsequently washed several times. Bound fragments were solubilized in SDS-sample buffer and analyzed by PAGE, as were unbound proteins in the supernatant fraction and starting material. The gels were analyzed using immunoblotting analysis with the anti-GST antibody Z-5.

T1 sequence (P02769 25-607): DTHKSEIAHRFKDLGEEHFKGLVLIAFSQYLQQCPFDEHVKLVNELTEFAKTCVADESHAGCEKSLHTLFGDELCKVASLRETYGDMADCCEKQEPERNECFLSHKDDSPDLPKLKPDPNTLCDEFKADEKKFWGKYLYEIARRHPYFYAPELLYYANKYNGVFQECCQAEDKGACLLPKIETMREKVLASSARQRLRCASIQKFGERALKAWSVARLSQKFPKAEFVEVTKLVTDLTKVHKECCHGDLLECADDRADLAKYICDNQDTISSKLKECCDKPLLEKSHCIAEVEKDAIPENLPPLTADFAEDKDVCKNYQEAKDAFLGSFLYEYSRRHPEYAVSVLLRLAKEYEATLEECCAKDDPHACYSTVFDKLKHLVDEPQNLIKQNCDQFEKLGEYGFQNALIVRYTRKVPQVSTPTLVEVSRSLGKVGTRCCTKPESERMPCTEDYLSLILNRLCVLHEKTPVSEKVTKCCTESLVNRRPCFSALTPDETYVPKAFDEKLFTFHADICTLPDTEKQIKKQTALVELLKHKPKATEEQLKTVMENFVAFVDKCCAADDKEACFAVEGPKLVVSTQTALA
Sequence of Aβ (1-40) (P05067 672-711): as the sequence (P05067 672-711) above

Turning to `Nc1c(/N=N/c2ccc(-c3ccc(/N=N/c4cc(S(=O)(=O)O)c5ccccc5c4N)cc3)cc2)cc(S(=O)(=O)O)c2ccccc12` [Congo red], the “competition of tPA binding to albumin-g6p” value in data set [1] is “competed”. Also, the “competition of tPA binding to Aβ” value on Aβ (1-40) is listed as “competed”.

Turning to “GST: glutathion-S-transferase tag alone, negative control”, the “binding to Aβ” value with Aβ was “some binding”. Also, in data set [2], the “binding to FP13” value is given as “did not bind”. The “binding to IAPP” value with IAPP is on record as “did not bind”. In addition, the “binding to Aβ fibers (pull-down, Western blot)” value with Aβ fibrils is recorded as “remain in the supernatant”. For the same compound, the “binding to amyloid deposits in AD brain sections” value in data set [3] is on record as “did not show specific binding”.

Consider “HGFa F-GST: finger domain of human hepatocyte growth factor activator with GST tag”, for which the “binding to Aβ fibers (pull-down, Western blot)” value in the data set with Aβ fibrils is reported as “specifically bind”. Also, the “binding to IAPP fibrils (pull-down, not shown)” value with IAPP fibrils is “specifically bind”.

Source of the values: patent publication US8158585B2, “Cross-β structure comprising amyloid-binding proteins and methods for detection of the cross-β structure, for modulating cross-β structures fiber formation and modulating cross-β structure-mediated toxicity” (CrossBeta Biosciences B.V., priority 2002, dated 2012).
